Assay results from patent publication US20140087995A1 (published 2014).
Numbered stars: 1 amine (or outer) side, 2 acyl side, 3 side chain; on linkers, the order of the positions; unused ones are H or OH. Bridge positions count the residues as written; N and C are the ends. Square brackets hold non-standard residues; d marks the D form. Side chains are listed from the residue outwards. Ends that are not written are not given here. * marks the point of attachment. C20 diacid = O=C(O)CCCCCCCCCCCCCCCCCCC(=O)*; C18 diacid = O=C(O)CCCCCCCCCCCCCCCCC(=O)*; C16 diacid = O=C(O)CCCCCCCCCCCCCCC(=O)*; γGlu = O=C(O)[C@H](CCC(=O)[*:2])N[*:1]; C14 diacid = O=C(O)CCCCCCCCCCCCC(=O)*

T1: human calcitonin receptor (human, UniProt P30988 25-474)
T1 sequence (looked up): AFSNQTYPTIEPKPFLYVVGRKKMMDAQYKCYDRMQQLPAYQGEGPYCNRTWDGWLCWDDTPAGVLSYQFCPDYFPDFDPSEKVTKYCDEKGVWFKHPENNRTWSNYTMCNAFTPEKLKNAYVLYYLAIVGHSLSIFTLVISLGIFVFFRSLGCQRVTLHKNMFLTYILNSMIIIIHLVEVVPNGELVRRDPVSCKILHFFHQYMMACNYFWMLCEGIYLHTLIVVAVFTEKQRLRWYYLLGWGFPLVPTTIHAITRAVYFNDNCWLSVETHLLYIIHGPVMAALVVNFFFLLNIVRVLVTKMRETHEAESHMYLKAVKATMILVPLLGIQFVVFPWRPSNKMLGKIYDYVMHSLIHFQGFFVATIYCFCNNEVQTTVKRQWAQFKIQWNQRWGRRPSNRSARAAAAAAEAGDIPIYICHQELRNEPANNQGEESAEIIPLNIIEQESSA

T2: human calcitonin receptor (human, UniProt P30988 25-474)
T2 sequence (looked up): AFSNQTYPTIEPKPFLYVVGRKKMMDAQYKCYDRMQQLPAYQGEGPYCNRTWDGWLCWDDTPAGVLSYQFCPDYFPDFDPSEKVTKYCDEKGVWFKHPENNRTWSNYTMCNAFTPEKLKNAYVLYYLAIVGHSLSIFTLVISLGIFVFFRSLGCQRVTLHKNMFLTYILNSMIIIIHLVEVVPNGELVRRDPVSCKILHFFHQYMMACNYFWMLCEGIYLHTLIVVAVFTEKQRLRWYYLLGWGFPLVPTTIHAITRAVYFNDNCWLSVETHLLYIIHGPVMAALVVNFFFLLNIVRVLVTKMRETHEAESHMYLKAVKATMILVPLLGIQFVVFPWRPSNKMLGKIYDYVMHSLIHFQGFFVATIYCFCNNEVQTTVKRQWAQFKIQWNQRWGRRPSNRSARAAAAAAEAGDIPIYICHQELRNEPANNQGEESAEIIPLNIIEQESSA

T3: human amylin 3(a) receptor (human calcitonin receptor + RAMP-3) (human, UniProt P30988 25-474; O60896 24-148, limits assumed)
T3 sequence (looked up) 1: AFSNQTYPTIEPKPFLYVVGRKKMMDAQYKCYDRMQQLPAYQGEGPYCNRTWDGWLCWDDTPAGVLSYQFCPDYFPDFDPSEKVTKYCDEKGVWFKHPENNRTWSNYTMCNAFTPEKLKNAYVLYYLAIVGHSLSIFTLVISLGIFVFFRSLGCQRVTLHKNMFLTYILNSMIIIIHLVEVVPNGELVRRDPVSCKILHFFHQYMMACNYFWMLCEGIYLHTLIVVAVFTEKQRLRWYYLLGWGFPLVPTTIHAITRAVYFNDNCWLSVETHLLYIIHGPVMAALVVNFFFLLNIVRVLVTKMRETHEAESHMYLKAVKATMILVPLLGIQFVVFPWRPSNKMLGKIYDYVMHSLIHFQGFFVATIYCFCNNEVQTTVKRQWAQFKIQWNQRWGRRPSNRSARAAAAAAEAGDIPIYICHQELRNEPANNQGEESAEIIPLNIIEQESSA
T3 sequence (looked up) 2: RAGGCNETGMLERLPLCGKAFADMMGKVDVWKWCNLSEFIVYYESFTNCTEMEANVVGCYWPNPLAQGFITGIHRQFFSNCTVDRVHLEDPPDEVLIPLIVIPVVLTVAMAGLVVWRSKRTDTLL


Legend:
Assay in all cases: cell-based or functional assay
[1] = target: T1, human calcitonin receptor
[2] = target: T2, human calcitonin receptor; remark: listed apart in the source
[3] = target: T3, human amylin 3(a) receptor (human …)

| hCTR funct. EC50 (pM) [1] | Ratio hCT/hAmylin funct. [2] | hAmylin-R funct. EC50 (pM) [3] | Binder |
| --- | --- | --- | --- |
| 7280 pM | – | – | K([γGlu-γGlu-C20 diacid])CNTATCATQRLADFLRHSSPNFGAIPSSTNVGPRTY-NH2 (disulfide 2-7 (inferred), Synthetic; also called compound 130) |
| 7430 pM | – | – | K([γGlu-γGlu-C20 diacid])CNTATCATQRLAEFLRHSSPNFGAIPSSTNVGRETY-NH2 (disulfide 2-7 (inferred), Synthetic) |
| 7050 pM | – | – | K([γGlu-γGlu-C20 diacid])CNTATCATQRLAEFLRHSSPNFGAIPSSTNVGHETY-NH2 (disulfide 2-7 (inferred), Synthetic) |
| 2830 pM | – | – | K([γGlu-γGlu-C20 diacid])CNTATCATQRLAEFLRHSSPNFGAIPSSTNVGPHTY-NH2 (disulfide 2-7 (inferred), Synthetic) |
| 2140 pM | – | – | K([γGlu-γGlu-C20 diacid])CNTATCATQRLAEFLRHSSPNFGAIPSSTNVGPNTF-NH2 (disulfide 2-7 (inferred), Synthetic) |
| 100000 pM | – | – | K([γGlu-γGlu-C20 diacid])CNTATCATQRLA[dD]FLRHSSPNFGAIPSSTNVGSRTY-NH2 (disulfide 2-7 (inferred), Synthetic) |
| 8160 pM | – | – | K([γGlu-γGlu-C20 diacid])CNTATCATQRLAEFLRHSSPNFGAIPSSTNVGPRTY-NH2 (disulfide 2-7 (inferred), Synthetic; also called compound 110) |
| 843 pM | – | – | K([γGlu-γGlu-C20 diacid])CNTATCATQRLADFLRHSSPNFGAIPSSTNVGPETY-NH2 (disulfide 2-7 (inferred), Synthetic) |
| 887 pM | – | – | K([γGlu-γGlu-C20 diacid])CNTATCATQRLASFLRHSSPNFGAIPSSTNVGPETY-NH2 (disulfide 2-7 (inferred), Synthetic; also called compound 120) |

Second part, the binder before the results:

| Binder | hCTR funct. EC50 (pM) [1] | Ratio hCT/hAmylin funct. [2] | hAmylin-R funct. EC50 (pM) [3] |
| --- | --- | --- | --- |
| K([γGlu-C20 diacid])CNTATCATQRLAEFLRHSSPNFGAIPSSTNVGPETY-NH2 (disulfide 2-7 (inferred), Synthetic) | 841 pM | – | – |
| K([γGlu-γGlu-C20 diacid])CNTATCATQRLAEFLRHSSPNFGAIPSSTNVGPETY-NH2 (disulfide 2-7 (inferred), Synthetic) | 2360 pM | – | – |
| K([γGlu-C14 diacid])CNTATCATQRLANFLRHSSPNFGAIPSSTNVGHNTY-NH2 (disulfide 2-7 (inferred), Synthetic) [N^ε1-[(4S)-4-carboxy-4-(13-carboxytridecanoylamino)butanoyl]-[Arg17,Pro21,Pro27,His34]-h-amylin] | 1090 pM | – | – |
| K([γGlu-C20 diacid])CNTATCATQRLAEFLRHSSPNFGAIPSSTNVGHETY-NH2 (disulfide 2-7 (inferred), Synthetic; also called compound 107) | 2540 pM | – | – |
| K([γGlu-C20 diacid])CNTATCATQRLAEFLRHSSPNFGAIPSSTNVGPHTY-NH2 (disulfide 2-7 (inferred), Synthetic) | 1450 pM | – | – |
| K([γGlu-C18 diacid])CNTATCATQRLANFLRHSSPNFGAIPSSTNVGHNTY-NH2 (disulfide 2-7 (inferred), Synthetic) [N^ε1-[(4S)-4-carboxy-4-(17-carboxyheptadecanoylamino)butanoyl]-[Arg17,Pro21,Pro27,His34]-h-amylin] | 5850 pM | – | – |
| K([γGlu-C20 diacid])CNTATCATQRLAEFLRHSSPNFGAIPSSTNVGRETY-NH2 (disulfide 2-7 (inferred), Synthetic) | 2740 pM | – | – |
| K([γGlu-C20 diacid])CNTATCATQRLADFLRHSSPNFGAIPSSTNVGPRTY-NH2 (disulfide 2-7 (inferred), Synthetic) | 3640 pM | – | – |
| K([γGlu-C20 diacid])CNTATCATQRLAEFLRHSSPNFGAIPSSTNVGPRTY-NH2 (disulfide 2-7 (inferred), Synthetic) | 6380 pM | – | – |
| K([γGlu-γGlu-C20 diacid])CNTATCATQRLANFLRHSSPNFGAIPSSTPVGPRTY-NH2 (disulfide 2-7 (inferred), Synthetic) | 8660 pM | – | – |
| K([γGlu-C20 diacid])CNTATCATQRLAEFLRHSSPNFGAIPSSTNVGSHTY-NH2 (disulfide 2-7 (inferred), Synthetic) | 5580 pM | – | – |
| K([γGlu-C16 diacid])CNTATCATQRLANFLRHSSPNFGAIPSSTNVGHNTY-NH2 (disulfide 2-7 (inferred), Synthetic) [N^ε1-[(4S)-4-carboxy-4-(15-carboxypentadecanoylamino)butanoyl]-[Arg17,Pro21,Pro27,His34]-h-amylin] | 2210 pM | – | – |
| {C20 diacid-γGlu}-GRCNTATCATQRLAAFLRHSSPNFGAIPSSTNVGHNTY-NH2 (disulfide 3-8; SMILES CC[C@H](C)[C@H](NC(=O)[C@H](C)NC(=O)CNC(=O)[C@H](Cc1ccccc1)NC(=O)[C@H](CC(N)=O)NC(=O)[C@@H]1CCCN1C(=O)[C@H](CO)NC(=O)[C@H](CO)NC(=O)[C@H](Cc1c[nH]cn1)NC(=O)[C@H](CCCNC(=N)N)NC(=O)[C@H](CC(C)C)NC(=O)[C@H](Cc1ccccc1)NC(=O)[C@H](C)NC(=O)[C@H](C)NC(=O)[C@H](CC(C)C)NC(=O)[C@H](CCCNC(=N)N)NC(=O)[C@H](CCC(N)=O)NC(=O)[C@@H](NC(=O)[C@H](C)NC(=O)[C@@H]1CSSC[C@H](NC(=O)[C@H](CCCNC(=N)N)NC(=O)CNC(=O)CC[C@H](NC(=O)CCCCCCCCCCCCCCCCCCC(=O)O)C(=O)O)C(=O)N[C@@H](CC(N)=O)C(=O)N[C@@H]([C@@H](C)O)C(=O)N[C@@H](C)C(=O)N[C@@H]([C@@H](C)O)C(=O)N1)[C@@H](C)O)C(=O)N1CCC[C@H]1C(=O)N[C@@H](CO)C(=O)N[C@@H](CO)C(=O)N[C@H](C(=O)N[C@@H](CC(N)=O)C(=O)N[C@H](C(=O)NCC(=O)N[C@@H](Cc1c[nH]cn1)C(=O)N[C@@H](CC(N)=O)C(=O)N[C@H](C(=O)N[C@@H](Cc1ccc(O)cc1)C(N)=O)[C@@H](C)O)C(C)C)[C@@H](C)O) | – | 4.9 | 109 pM |
| {C20 diacid-γGlu}-GRCNTATCATQRLAHFLRHSSPNFGAIPSSTNVGPNTY-NH2 (disulfide 3-8; SMILES CC[C@H](C)[C@H](NC(=O)[C@H](C)NC(=O)CNC(=O)[C@H](Cc1ccccc1)NC(=O)[C@H](CC(N)=O)NC(=O)[C@@H]1CCCN1C(=O)[C@H](CO)NC(=O)[C@H](CO)NC(=O)[C@H](Cc1c[nH]cn1)NC(=O)[C@H](CCCNC(=N)N)NC(=O)[C@H](CC(C)C)NC(=O)[C@H](Cc1ccccc1)NC(=O)[C@H](Cc1c[nH]cn1)NC(=O)[C@H](C)NC(=O)[C@H](CC(C)C)NC(=O)[C@H](CCCNC(=N)N)NC(=O)[C@H](CCC(N)=O)NC(=O)[C@@H](NC(=O)[C@H](C)NC(=O)[C@@H]1CSSC[C@H](NC(=O)[C@H](CCCNC(=N)N)NC(=O)CNC(=O)CC[C@H](NC(=O)CCCCCCCCCCCCCCCCCCC(=O)O)C(=O)O)C(=O)N[C@@H](CC(N)=O)C(=O)N[C@@H]([C@@H](C)O)C(=O)N[C@@H](C)C(=O)N[C@@H]([C@@H](C)O)C(=O)N1)[C@@H](C)O)C(=O)N1CCC[C@H]1C(=O)N[C@@H](CO)C(=O)N[C@@H](CO)C(=O)N[C@H](C(=O)N[C@@H](CC(N)=O)C(=O)N[C@H](C(=O)NCC(=O)N1CCC[C@H]1C(=O)N[C@@H](CC(N)=O)C(=O)N[C@H](C(=O)N[C@@H](Cc1ccc(O)cc1)C(N)=O)[C@@H](C)O)C(C)C)[C@@H](C)O) | – | 2.9 | 62 pM |
